The data set concerns the molecule itself. The data set can be described thus: negative-stain electron microscopy of filaments on vesicles.

From paper doi:10.1101/2022.02.16.480668 (bioRxiv, 2022) come the findings set out here.

B1: Vps60 (natural protein)
chain: MNRIFGYGNKKSHDQLLQESNQSMNQAQQSLSNRISQLDTQIAQLNFQLQNIQKNLQRSNNKQPSLRKQALKILNKRKQLENMKDSLDSQSWSMTQAQLTNDNLQNTMITINALKQTNNAMKAQYGKINIDKLQDMQDEMLDLIEQGDELQEVLAMNNNSGELDDISDAELDAELDALAQEDFTLPTSENSLGNDMPSYLLGANAPPAFIDEEPNLDTEDKNKALESAQ
modifications: Atto-565 (TFP ester labelling) where fluorescence was read; labeled protein mixed 1:1 with unlabeled protein
With B1, the binding result is “binds”.
